Reference: the supplement of paper PMC10567573

B1: PLAGL1 (parent)
chain: CKDFLCQFCAQRFGRKDHLTRHTK
B2: FCHO1 (parent)
chain: DKLALCHLELTRKLQDLIKDVLRY

Variants of: B1
Assay: protein stability index of a GFP-peptide fusion (GPS, HEK-293T) (PSI 1-6); higher = more stable
Settings: c terminus: a fixed tail appended
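Also: lentivirally expressed fusions sorted by FACS into six bins by GFP to DsRed ratio, PSI derived from sequencing read proportions per bin multiplied by bin number.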

Protein stability index, by site and new letter:
C1: F 1.64 | Q 2.11 | H 2.02 | T 1.76 | M 1.53 | I 2.46 | W 1.84 | D 2.31 | G 1.93 | N 1.72 | Y 2.44 | K 2.11 | S 2.7 | R 2.04 | A 3.04 | L 2.25 | P 2.2 | V 1.67
K2: T 2.09 | N 2.02 | I 1.78 | M 1.46 | H 2.46 | F 2.35 | S 1.74 | A 1.7 | Q 2.08 | G 2.43 | V 1.53 | E 2.13 | C 2.44 | L 1.85 | R 2.74 | D 2.02 | W 1.7 | Y 2.05 | P 2.52
C6: G 1.84 | L 1.99 | K 1.4 | A 2.18 | V 1.89 | D 2.17 | N 1.76 | R 1.41 | Y 2.1 | Q 2.34 | I 1.62 | P 2.38 | F 1.78 | M 1.48 | S 1.58 | E 2.63 | W 1.78 | H 2.25 | T 2.04
F4: D 1.76 | G 2.02 | I 1.54 | L 1.41 | A 2.05 | T 2.35 | H 1.58 | V 1.27 | E 2.56 | R 2.4 | Y 1.36 | N 2.64 | C 1.97 | M 2.21 | P 2.37 | Q 2.34 | K 2.41 | S 2.23
L5: Q 2.01 | G 2.23 | C 1.41 | W 1.93 | H 1.89 | N 2.23 | V 1.36 | P 2.87 | A 2.02 | E 2.07 | K 2.08 | Y 1.82 | R 1.43 | T 1.81 | M 1.9 | F 2.56 | S 2.41 | D 2.18 | I 1.69
Q7: D 2.2 | E 2.25 | A 2.38 | C 1.52
D3: L 1.86 | Q 2.76 | N 1.56 | F 3.19 | V 2.38 | G 2.38 | T 1.77 | K 1.48 | W 1.73 | M 1.38 | R 1.81 | A 1.57 | E 1.78 | Y 2.11 | H 2.07 | P 1.73 | S 1.51 | I 2.01 | C 1.31

Variants of: B2
Assay: as above
Settings: c terminus: a fixed tail appended

Protein stability index: each site, then its substitutions
L17: T 2.71 | S 2.04 | F 2.42 | Q 1.35 | Y 3.59 | W 4.39 | R 2.12 | E 2.04 | V 2.4 | G 3.64 | P 3.05 | I 2.89 | H 2.06 | N 2.13 | D 2.06 | K 2.77 | A 1.42
I18: D 2.98 | S 2.6 | Q 1.73 | P 2.11 | G 2.33 | Y 2.52 | E 3.6 | H 2.12 | C 2.17 | F 3.1 | R 2.76 | N 2.4 | A 2.71 | T 2.02 | M 2.05 | K 3.16
V21: N 2.02 | S 1.83 | R 2 | I 2.97 | E 2.24 | G 2.84 | D 1.43 | Y 2.3 | T 2.53 | P 2.13 | H 3.97 | F 2.25
L22: A 2.73 | S 2.44 | K 1.65 | Q 2.92 | M 2.35 | T 1.05 | P 3.16 | D 2.32 | E 2.67 | N 1.47 | G 1.68
D20: V 2.67 | W 2.4 | P 2.52 | F 1.87 | M 1.9 | N 4.79 | L 2.19 | G 3.57 | I 2.16 | K 1.71 | C 1.11 | Y 2.3
R12: G 2.7 | V 1.83 | I 2.33 | A 1.42 | M 1.99 | Y 2.6 | E 1.54 | P 1.53 | N 2.54 | D 2.92 | H 2.98 | C 2.23 | T 1.94 | Q 2.9 | W 2.44 | S 2.56
E9: Q 3.2 | F 2.62 | G 2.87 | N 5.51 | P 3.31 | Y 3.21 | A 2.63 | W 2.73 | V 4.2 | K 3.04 | S 1.77 | L 2.72 | I 2.67 | H 2.19
R23: P 1.2 | I 1.47 | C 3.57 | Q 3.15 | L 2.59 | D 2.08 | A 3.49
L14: K 1.95 | Y 1.49 | N 2.33 | Q 2.14 | D 3.23 | F 1.12 | W 1.53 | I 3.06 | C 3.78 | M 4.05 | E 2.3 | H 1.88 | G 1.53 | R 2.6 | S 2.13 | P 2.99
L10: Q 3.04 | H 1.3 | E 2.57 | V 3 | F 3.33 | R 1.51 | T 2.14 | M 4.05 | S 1.93 | N 1.21 | C 2.22 | P 1.69 | Y 1.76 | K 1.59 | A 2.75 | G 1.86 | D 2.09
T11: P 1.51 | Y 2.57 | N 1.26 | Q 2.8 | E 1.27 | M 2.82 | S 2.25 | D 3.07 | I 1.69 | C 3.34 | F 3.07
D16: M 2.46 | F 2.36 | V 2.92 | N 3.32 | C 3.11 | W 2.1 | P 2.15 | I 2.67 | S 2.2 | Y 2.42
Q15: L 3.4 | R 2.88 | V 1.95 | T 2.05 | I 3.87 | C 2.26 | Y 2.79 | P 1.36 | N 2.84 | D 2.48 | W 2.34 | A 2.11 | S 4.09
K19: Y 2.43 | N 2.69 | R 2.22 | A 1.17 | G 2.29 | D 1.78 | P 2.36 | I 2.33 | F 1.66 | M 2.52 | H 2.18 | Q 1.36 | S 1.71 | C 2.7 | E 2.16
K13: T 3.29 | C 1.75 | A 1.46 | L 1.52 | Y 2.74 | V 3.38 | M 2.21 | N 1.8 | R 2.23 | D 2.86 | P 2.54 | E 2.19 | S 1.98 | I 1.15 | G 2.47
Y24: P 1.99 | G 2.98 | C 2.92 | T 2.26 | K 2.3 | E 3.6 | N 2.43 | S 1.04
L8: G 2.92 | N 2.36 | H 3.96 | W 2 | I 1.79 | K 2.72 | D 2.63 | F 2.65
